Tests used:
Experiment in all cases: filter binding
[1] = target: T1, R.MwoI S310D (Methanothermobacter wolfeii (DSMZ), UniProt O59646 1-363, S310D)
T1 sequence: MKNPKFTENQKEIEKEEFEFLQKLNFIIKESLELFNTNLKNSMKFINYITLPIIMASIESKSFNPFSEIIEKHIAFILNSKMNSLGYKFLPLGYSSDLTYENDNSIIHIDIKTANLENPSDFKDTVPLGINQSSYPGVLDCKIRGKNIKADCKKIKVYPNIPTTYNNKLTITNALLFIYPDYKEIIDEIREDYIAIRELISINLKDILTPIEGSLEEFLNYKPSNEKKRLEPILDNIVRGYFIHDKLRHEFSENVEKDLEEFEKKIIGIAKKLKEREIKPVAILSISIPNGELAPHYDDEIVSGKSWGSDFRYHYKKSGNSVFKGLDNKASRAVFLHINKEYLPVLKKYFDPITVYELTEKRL

[2] = target: T2, R.MwoI S310K (Methanothermobacter wolfeii (DSMZ), UniProt O59646 1-363, S310K)
T2 sequence: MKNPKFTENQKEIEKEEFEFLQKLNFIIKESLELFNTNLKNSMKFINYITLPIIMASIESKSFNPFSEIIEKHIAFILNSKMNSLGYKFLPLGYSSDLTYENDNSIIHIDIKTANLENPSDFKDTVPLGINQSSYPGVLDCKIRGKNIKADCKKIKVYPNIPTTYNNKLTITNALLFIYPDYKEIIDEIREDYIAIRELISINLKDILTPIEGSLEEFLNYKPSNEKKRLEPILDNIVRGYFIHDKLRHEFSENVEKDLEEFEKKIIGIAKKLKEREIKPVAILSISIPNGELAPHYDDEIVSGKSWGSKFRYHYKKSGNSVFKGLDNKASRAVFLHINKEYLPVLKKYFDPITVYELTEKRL

[3] = target: T3, R.MwoI D110A (Methanothermobacter wolfeii (DSMZ), UniProt O59646 1-363, D110A)
T3 sequence: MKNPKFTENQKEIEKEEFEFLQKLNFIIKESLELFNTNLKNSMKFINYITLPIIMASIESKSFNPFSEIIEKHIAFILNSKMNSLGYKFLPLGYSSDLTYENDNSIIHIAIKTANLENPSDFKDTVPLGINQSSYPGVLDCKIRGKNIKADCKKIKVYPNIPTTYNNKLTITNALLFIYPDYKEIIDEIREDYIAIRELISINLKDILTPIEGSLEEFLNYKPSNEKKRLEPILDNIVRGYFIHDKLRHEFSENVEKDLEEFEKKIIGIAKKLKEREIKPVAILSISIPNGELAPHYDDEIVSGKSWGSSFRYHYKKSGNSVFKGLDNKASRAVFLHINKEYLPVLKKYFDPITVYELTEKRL

[4] = target: T4, R.MwoI S310A (Methanothermobacter wolfeii (DSMZ), UniProt O59646 1-363, S310A)
T4 sequence: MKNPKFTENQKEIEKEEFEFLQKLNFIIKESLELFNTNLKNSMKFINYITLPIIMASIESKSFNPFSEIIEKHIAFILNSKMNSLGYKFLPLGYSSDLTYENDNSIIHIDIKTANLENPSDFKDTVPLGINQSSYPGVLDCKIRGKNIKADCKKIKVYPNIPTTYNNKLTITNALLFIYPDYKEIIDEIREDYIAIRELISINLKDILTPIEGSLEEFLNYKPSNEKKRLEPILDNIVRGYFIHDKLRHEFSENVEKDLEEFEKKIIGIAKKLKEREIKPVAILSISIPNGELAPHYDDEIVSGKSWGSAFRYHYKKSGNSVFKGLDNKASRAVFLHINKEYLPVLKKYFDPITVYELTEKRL

[5] = target: T5, R.MwoI T125R (Methanothermobacter wolfeii (DSMZ), UniProt O59646 1-363, T125R)
T5 sequence: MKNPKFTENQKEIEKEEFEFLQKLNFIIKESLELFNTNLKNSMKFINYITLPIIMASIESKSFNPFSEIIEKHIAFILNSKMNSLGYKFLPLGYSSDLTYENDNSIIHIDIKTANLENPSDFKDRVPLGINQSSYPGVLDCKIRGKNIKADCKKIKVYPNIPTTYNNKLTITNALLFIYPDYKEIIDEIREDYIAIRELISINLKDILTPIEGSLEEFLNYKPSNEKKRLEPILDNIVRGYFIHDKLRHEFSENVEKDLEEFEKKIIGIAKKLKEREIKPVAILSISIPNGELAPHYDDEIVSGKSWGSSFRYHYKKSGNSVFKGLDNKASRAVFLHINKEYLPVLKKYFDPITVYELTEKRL

[6] = target: T6, R.MwoI E68A (Methanothermobacter wolfeii (DSMZ), UniProt O59646 1-363, E68A)
T6 sequence: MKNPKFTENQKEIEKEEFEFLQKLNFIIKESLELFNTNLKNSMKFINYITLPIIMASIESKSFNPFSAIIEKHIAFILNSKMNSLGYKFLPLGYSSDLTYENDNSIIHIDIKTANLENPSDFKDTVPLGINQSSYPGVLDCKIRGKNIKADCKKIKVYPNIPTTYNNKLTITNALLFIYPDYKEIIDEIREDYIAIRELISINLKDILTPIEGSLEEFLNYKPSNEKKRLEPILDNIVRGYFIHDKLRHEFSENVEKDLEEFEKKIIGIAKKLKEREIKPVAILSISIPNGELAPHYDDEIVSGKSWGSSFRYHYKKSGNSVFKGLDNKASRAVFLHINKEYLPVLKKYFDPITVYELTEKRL

[7] = target: T7, R.MwoI K112A (Methanothermobacter wolfeii (DSMZ), UniProt O59646 1-363, K112A)
T7 sequence: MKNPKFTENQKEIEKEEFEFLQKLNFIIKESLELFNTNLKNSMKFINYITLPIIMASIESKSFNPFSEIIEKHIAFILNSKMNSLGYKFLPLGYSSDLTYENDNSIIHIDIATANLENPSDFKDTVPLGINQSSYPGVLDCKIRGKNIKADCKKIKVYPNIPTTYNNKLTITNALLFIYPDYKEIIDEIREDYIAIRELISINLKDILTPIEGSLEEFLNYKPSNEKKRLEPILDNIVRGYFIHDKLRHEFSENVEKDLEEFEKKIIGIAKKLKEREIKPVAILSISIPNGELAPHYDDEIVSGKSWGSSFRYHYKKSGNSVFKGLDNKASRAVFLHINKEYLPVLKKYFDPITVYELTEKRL

[8] = target: T8, R.MwoI A330R (Methanothermobacter wolfeii (DSMZ), UniProt O59646 1-363, A330R)
T8 sequence: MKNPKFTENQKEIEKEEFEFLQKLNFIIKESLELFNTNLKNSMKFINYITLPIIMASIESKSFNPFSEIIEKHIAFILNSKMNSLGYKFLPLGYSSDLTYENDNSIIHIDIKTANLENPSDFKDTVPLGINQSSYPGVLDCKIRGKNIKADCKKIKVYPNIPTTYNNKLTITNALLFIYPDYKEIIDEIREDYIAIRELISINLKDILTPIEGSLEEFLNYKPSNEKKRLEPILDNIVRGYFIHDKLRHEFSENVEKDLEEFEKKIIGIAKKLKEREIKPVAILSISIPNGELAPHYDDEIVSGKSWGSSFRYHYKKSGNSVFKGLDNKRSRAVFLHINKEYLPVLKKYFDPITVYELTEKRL

B1: G/C (GCGN5CGC) (dsDNA)
DNA 1: GACAGTGCGATCTCCGCGACAGT
DNA 2: ACTGTCGCGGAGATCGCACTGTC
- binding result [1]: binds

B2: C/G (GCCN5GGC) (dsDNA)
DNA 1: GACAGTGCCATCTCGGCGACAGT
DNA 2: ACTGTCGCCGAGATGGCACTGTC
- binding result [2]: binds

B3: MwoI target oligonucleotide (dsDNA)
DNA 1: CGGCTGTAGTCGCAC
DNA 2: GTGCGACTACAGCCG
- binding signal [3]: 25 % of wt
- binding signal [4]: 53 % of wt
- binding signal [5]: 42 % of wt
- binding signal [6]: > 350 % of wt
- binding signal [7]: 114 % of wt
- binding signal [8]: > 350 % of wt

B4: A/T (GCAN5TGC) (dsDNA)
DNA 1: GACAGTGCAATCTCTGCGACAGT
DNA 2: ACTGTCGCAGAGATTGCACTGTC
- binding result [1]: binds

Reference: article PMC3458533
